# Experimental data taken from the DeepSol protein solubility set.
# Test: soluble on expression in E. coli; label from the status in PepcDB or PDB records
row,Sequence,soluble on expression in E. coli
1,MNDFYVTLPSSVKNAQFENTSSRYVTRLPQVLHLEKDEYSVAVTDIIYPYSFVNLGRPLNYWIHFKNREPINVTFPAAQYDDLPHVVNSLNGVQKPRMKRGAPLILENEQVKRPKSDEPLSERDVIINKIRELEAKAKKDEEERIAREKEEKNKQREKHLATHKKAEEFAKKVQTDKDEQREKHLDTHKKAEQNAQDNQKYHDEERKKHIETQKKAEENEEKRRAKEKADRDAHVARHKQAEALEKKKREQEEKQKNEDRERATQKERREHIERHRQAEARAKALEKEKHEQEEKQKKENLERAEKERHDHIERQRQAEARAKALEQEKQEEKQKNEDRERATQKERREHLERHRQAEARAKALEKEKHERLQQEAKDKEDERARDKARKDAKAREEAKSREDVKAEKVAIDPKQVVNIPGKVYASQEAKKIIEKVNELEKQERDKIVSKVRESEAIEKEAVRASSEYHDVALKIFQKPNDRNIYDELKLSFERIRSRIKVSHFENSSDYLQFGEKDGRVSIDFLDSNILFEEFEKSCAYFLGFHDTIVRESSLAPSKIDYFGNVSTIYLYCDIVDPIIVGDSKNSLLSVIPCKGKYGEMIHHTIPHPRYLPIMNSTIDSIKIELLSEFAEPINFNWGSTVIVLHFKKI,not soluble
2,MNDGYKQNDIVNHEAYEELEVAEEQIIYCQEEYNDGPGTMVQVQEQTDVPCYVMEGTYFTPENIYAANQDHSVCHFCKEDLTNKRFYNHLFDHHGFTKQQCEMMKQQKRLGRPNPKRKSLHSCENCGMEFITKTGLTSHLKKDNSPCARVDEMAVGGSSVSNIVCPSYGCDKNVPTYLDLAIHVDTEHRDLSRATDSFRIRRVTFQDKAGFMKWKKQMEKSTNSEFFLRTSQKVSFAIRTMLYKCLFSNSRGQSKGRRCEQCPAFIKCCMRNHGQYEVVACFGHLGHEHPTETEIARQMRIEKYREIDALQVRESRMHNQHHMNVRPKQIIVDQYGHPTHPNDEMMILMPVGEEVVEEDAFTSVVVDDADDEIVGPRAQQETPALTRQVYIPTSNHHASSSHY,not soluble
3,MNDQEFFTVHHALTINVEPLAEHFTLPSHEIFEAEIPAPFVVASEFSQLEQLSDSARMELKNSDFKSVLQLLEAQNAKLNLLLTFMLSQQDDPQSRSATTRFGASQLTYLAKSPLQIGQKVRVKLFLEYPAAAIYCYASVMQCQQEPEHTLVTLKYDLLRDVDQDLLIKAALYQQQRLLRQRSLDREKPQA,soluble
4,MNDSILEPKHRGNVREIAAIDLGSNSFHMIVARIVNGSIQVLSRLKQKVKLAEGLDENAVLNQEAITRGVNCLALFAERLQGFPMENVNVVGTYTLRRAVNNDEFLRQAAKVFPYPINIISGQTEAKTIYAGVCHTQPEKGRKLVIDIGGGSTEMIIGDDFTPLMAESRHMGCVSFATQFFTDGIISPENFQRARQSAVNKIEDLGLEYRKLGWQSVLGSSGTIKTVAQVIATNLDPNGTITAERLNALIEQTLQAKHFTELNINGLNQDRVDVFVPGLAILSAVFDVFHIQQMRYSDGALREGVIYSLEKNFQVADIRASTALEHHHHHH,not soluble
5,MNDVVLSCKNVSKKYTEFKTDIAILKDVNLEIKKGEKVAILGLSGSGKTTLLNVLGGLDKCSAGEVYLMGERFDNQSVNKRAKMRNKHLGFIYQLHHLLPEFTAIENVMIPLAITKKYTKKESIKLANEILKKVGLDHRADHKPAELSGGERQRVAIARALVTNPNCILADEPTGNLDSQRSESIFALMQQLSDDFGTSFVIVTHDEKLASRMNKIYRLVDGELELVINSN,not soluble
6,MNEFDRVRDYLTDLQDRICAAVEAIDGKARFAEDLWQRAEGGGGRTRILRDGAVFEQAGIGFSDVSGARLPPSASAHRPELAGATWRACGVSLVFHPHNPHIPTTHANVRYFRAERDGEMVAAWFGGGFDLTPFYPVDEDVMHWHRTAQALCAPFGEERYAAHKRWCDEYFFLRHRNETRGVGGLFFDDLGQDFERDFAYQRAVGDGFLDAYLPIVERRKDTPYGEAERAFQLYRRGRYVEFNLVYDRGTLFGLQSGGRAESILMSLPPQVRWEYGFQPQPGSAEARLADYLIPRDWLGLEHHHHHH,soluble
7,MNEKTINEQYAYIRTLLEEKRLKEALMQLESLLWQCPDWDLRTRLEQLQTSYKYMLEYMRQGANDPERWNVYRKLIADTWEIADRSRLLMLDNASSRYYHEVRRTPRPESLSAYTLKKLLHMLESFNDDLAVSGLLSDEKMDEVLKRHEETLKYMFLQTWTNSAWTPEEEEDAQSMLTSELLPVNDLCLFISAVTLSLMECFDLRKIMWLLDAYRHPDVNAGQRALVGVIFIFHIYKNRLSLYNDLVKRVDLMDEISPFKEDVARIYHQMLLCQETEKIDKKMREEIIPEMLKNVSSMRNMRFGFEENEDENDDKNPDWADAFEQSGLGDKLREMNELQLEGADVYMSTFAALKSYPFFREVQNWFYPFSKQQSDVIKQLKQEGNEKNTLLDLILQSGFFSNSDKYSLFFTIRQLPKAQQDMMLSQLGEQQVAELTEKSSAETMKKFNERPGTVSNQYLHDLYRFFKLSVRRHEFRDIFKEKLDLHHIPALSNVLYSEDILFPIADFYLKKERWNEAIEVYEEMETIGALQERGAEYYQKLGYALQKSKKYAEAIGAYLKADTLKPDNIWNNRHLAICYRLNRNYQAALSYYKKVEEATPEDTNVIFHIGSCLAELGQYEEAANYFFKLDFIESNCIKAWRGIGWCSFISRKYEQAMKYYEKIIEQKPLAIDYMNAGHVAWTMGDIQKAAALYGKSITANGNRERFLEMFRKDEEALLKQGIQEEDIPLMLDLL,not soluble
8,MNEVKLSKRLEEVVREIPVGSTVADIGSDHAYLPCYTIINNIATKAVAGEVVDGPFRSAQATVAESGLQDKVDVRKGNGLAVIAPGEVDVITVAGMGGALIRDILESGKEKLEGVTRLILQPNIAAHHIREWFIENGWELIHEKIVKEDGKIYEILVGERGNVAAPYSENKQAELFMGPFLITEKSEAFVEKWEGELKNFQNILKQLERAADSEETKAKRGEVEAKMKMIGEVLS,not soluble
9,MNFESTRRRLTEKQADTVDRLTRAAVEVLREEGFAGLTVRSVAGIAGVAPATAYTYFSSKEHLVAEVFWRRLAGSPQPADDGLDRTGRVVAVLRHIALLVADEPELAGAVTNALLGRDPDVEHLRARIGLEIRDRLATALGEGHDPDVLEALELLYAGGLVRAGMGYGSYAQFADRLETSAKLILE,not soluble
10,MNFGKSSWRTYEQGIQREWLLTNGIGGFASSTIIGSNTRRYHGLLVAALKPPVSRHLILSKIDECVTVDNESFNLFSYEVPGFIMHGYHHLERFEYDMLPKYIYRVKDVYVEKEICMVYGENTVVVVYHVINGTGRTNLRLTPLVNFRDYHFNSGRAYMSFERKFEKDVLTVRPSCYDIDIKLYSTDGKFTELDDTWFYNMDYAVERERGLASTEDHYIPGYYDIEIKPLEEKYITFVATVEKNVNHRDGLKIIEKEKKRLKKLASKAGYKDELAKKLVLAADKFIVHRESTNAKTVIAGYPWFTDWGRDTMISLAGLTLATRRFEDAKEILYTFSKYVKDGLIPNMFPDAGHEPPYNTVDAALWYFEAVNKYVNYTHDYKFIKENIYSGLKQIIEYYSKGTHFNIKADEDYLISAGDEHTQLTWMDAKVGDWVVTPRHGKAVEINALWYNALKIMSQLSKHFKEDAGLYDEMAEKVKKSFEEKFWNEEKKCLYDCLTPNYKDDKVRPNQILAVSLSYPVIEGEKAKSVVDIVFKELYTAYGLRSLSPKEKEYVGVYMGDQYRRDGAYHQGTVWTWPLGHFITAYLRVNNYSPEARKMALRFIEPFKDHLQDACLGSVSEIFDGNEPLIPRGCFAQAWSVAEILRAYVEDVMQLVQLKH,soluble
11,MNFPVSDLTSYQELIEQQGLKSQTNIISLDKIIVDIILSEKTGFSRSQQVWCLIRQRIVDGCASVVDIDYLDMRLMPQLNRSIAENSIYDYLENQLHLSISHAFKEITIDNTSEQDKILIDIGKDHHVVCIRSKVYLNNGNQLQFTESRHKLEKFKFVYYAKRHH,not soluble
12,MNGRRWMVLAAVVGVSTLSACASQGHDSDETLPTYTPPAWMAEVRAQNEEYANAGVACLAAHGVEGTADNGTFGISYGPQSQGALTHMTDEEADALLTECSESLSLPDYVNNSADEEYDRVLDLRECVIAQGYDMPDAPSREVWTEQWERTRDAWVPYYHEMTLDPDGLERHKVTVEEMNRLQSICVPSTVGATTVSR,not soluble
13,MNHQARMRWRCRRGMLELDIVLQRFIDNHYEQLDEHQLELFEMLLSLSDHDLWNIIIGNTKEPNNQFQPVLKLLQENLEHHHHHH,soluble
14,MNHTSDTALLIVNLGTPEAPTAAAVRRYLGEFLSDRRVVSIPPLFWKPLLHMVILPIRGPRSASKYAKVWLQEGSPLSVYTRRIAEGLTQHLPDWRVAWAMRYGAPALTKALDALQAQQVRRIVILPLYPQYSTTTTASVQDVVEAWCKRTPQVQVECIQDYAEDPAWVAAVAASIRRHWQAHGRSEKLMFSFHGLPQRVANNGDPYPQRCQV,not soluble
15,MNIAAESSAKPVWGPPNFCAAAARMQDVRVLMHPKTGRAFRSPVEPGSGWPGDPATPQTPVAADAAQVSALAGGAGSICELNALISVCRACPRLVSWREEVAVVKRRAFADQPYWGRPVPGWGSKRPRLLILGLAPAAHGANRTGRMFTGDRSGDQLYAALHRAGLVNSPVSVDAADGLRANRIRITAPVRCAPPGNSPTPAERLTCSPWLNAEWRLVSDHIRAIVALGGFAWQVALRLAGASGTPKPRFGHGVVTELGAGVRLLGCYHPSQQNMFTGRLTPTMLDDIFREAKKLAGIE,soluble
16,MNICMRNGYEQFSLTSPGTSDLEIGGSFWKDEPDTKYLCLDSPVEQRQHQPPMAVCAGCRLEISDRYFLRVNPNLEFHAQCLKCVQCSRPLDENQTAFVKNGQTYCRDDYRRLFTTRCSRCHGDFDKTDLVMRAGPQNVFHLNCFACVACEKRLQTGEEFQIKNNSLYCRSDCRGLDNPDTSASVPDYSKLNNNNNNDNNNSSSNFDEDEWDEERSTLTSLDNNTSSPLGSPKSDGVRTPLFGHHNSGSGGSTSSCGKKKKDKQATRVRTVLNENQLKILRDCYSINSRPDATLKERLVEMTGLSARVIRVWFQNKRCKDKKRQIQITENRLNSEREEVLNRVRVNGIGPLMVQPATPHIDNTLGGPIDIQHFAQWNGTPPPPPPQYGNPMMFNSPSTFDVSVILAPVAPNVTSPSEALGPLGASVFPHFSPQHAPFTATSHDISSPAPCGE,not soluble
17,MNIEQLSQSLEHMANQAATLDRQRGEHHVPLFDERLFSCRSRLLTPCVKEAKSTLDAIIREQNENKLTALRAEYLTERLVAQIGAIQREISTTKIRKNEIKHSSHFRKPINVLYQELAQHQEWARRLREMVLEKERAVETAPSFMRAEAQKVLLATEQRLARCEAALLKLENQITHREKHQ,soluble
18,MNIHEYQGKAVLRSYGVSVPNGKVAFTVEEAVEAAKELGTDVCVVKAQIHAGGRGKAGGVKVAKNLDEVRTYAESILGTTLVTHQTGPEGKEVKRLLIEEGCDIKKEYYVGLVLDRATSQVVLMASEEGGTEIEEVAEKTPEKIFKEYIDPAVGLQGFQARRIAFNINIPKELVGQAVKFMMGLYRAFIEKDCSIAEINPLVTTGDGKVMALDAKLNFDSNALYRHKDILELRDLDEEDAKEIEASKYDLNYIPLDGNIGCMVNGAGLAMATMDIIKHYHGDPANFLDVGGGATAEKVTEAFKIILSDKNVKGIFVNIFGGIMKCDVIAEGVIEATKQVGLELPLVVRLEGTNVELGKKILNESGLNIVAAESMTDGAQKIVSLVG,not soluble
